# Data reported in IntAct's records for PubMed 29892012.
# Experiments:
# [1] = molecular target: aagab_human AAGAB (UniProt Q6PD74)
# [2] = molecular target: T1, dest_human DSTN (UniProt P60981)
# T1 sequence: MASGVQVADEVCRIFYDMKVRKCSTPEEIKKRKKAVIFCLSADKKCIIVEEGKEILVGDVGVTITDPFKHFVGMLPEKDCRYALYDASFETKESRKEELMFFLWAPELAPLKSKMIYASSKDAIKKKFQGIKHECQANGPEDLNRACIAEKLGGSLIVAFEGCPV
# [3] = molecular target: ntaq1_human NTAQ1 (UniProt Q96HA8)
# [4] = molecular target: ctsr1_human CATSPER1 (UniProt Q8NEC5)
# Chain of ctsr1_human CATSPER1 (Q8NEC5 whole entry): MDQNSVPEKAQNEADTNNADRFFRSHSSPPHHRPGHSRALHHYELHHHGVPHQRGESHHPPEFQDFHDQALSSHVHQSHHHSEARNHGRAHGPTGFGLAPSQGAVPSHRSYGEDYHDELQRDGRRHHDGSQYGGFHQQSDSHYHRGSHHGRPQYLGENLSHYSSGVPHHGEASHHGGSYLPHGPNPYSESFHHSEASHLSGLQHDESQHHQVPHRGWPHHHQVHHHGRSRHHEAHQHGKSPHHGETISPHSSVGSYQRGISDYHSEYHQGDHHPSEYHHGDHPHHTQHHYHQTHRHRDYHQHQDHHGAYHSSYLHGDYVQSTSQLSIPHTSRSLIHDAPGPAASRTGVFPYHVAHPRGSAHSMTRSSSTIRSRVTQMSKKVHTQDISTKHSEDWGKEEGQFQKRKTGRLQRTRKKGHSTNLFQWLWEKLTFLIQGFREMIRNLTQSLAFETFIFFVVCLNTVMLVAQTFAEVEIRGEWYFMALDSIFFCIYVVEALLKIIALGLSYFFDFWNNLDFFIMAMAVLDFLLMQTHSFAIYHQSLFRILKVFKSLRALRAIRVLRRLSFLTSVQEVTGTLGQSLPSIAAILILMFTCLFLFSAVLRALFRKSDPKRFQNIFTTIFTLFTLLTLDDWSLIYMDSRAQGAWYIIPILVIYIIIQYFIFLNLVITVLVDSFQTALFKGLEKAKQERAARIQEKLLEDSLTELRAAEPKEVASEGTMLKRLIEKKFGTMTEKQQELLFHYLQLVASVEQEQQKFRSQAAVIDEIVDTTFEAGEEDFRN
# [5] = molecular target: creb3_human CREB3 (UniProt O43889)
# [6] = molecular target: itf2_human TCF4 (UniProt P15884)
# Chain of itf2_human TCF4 (P15884 whole entry): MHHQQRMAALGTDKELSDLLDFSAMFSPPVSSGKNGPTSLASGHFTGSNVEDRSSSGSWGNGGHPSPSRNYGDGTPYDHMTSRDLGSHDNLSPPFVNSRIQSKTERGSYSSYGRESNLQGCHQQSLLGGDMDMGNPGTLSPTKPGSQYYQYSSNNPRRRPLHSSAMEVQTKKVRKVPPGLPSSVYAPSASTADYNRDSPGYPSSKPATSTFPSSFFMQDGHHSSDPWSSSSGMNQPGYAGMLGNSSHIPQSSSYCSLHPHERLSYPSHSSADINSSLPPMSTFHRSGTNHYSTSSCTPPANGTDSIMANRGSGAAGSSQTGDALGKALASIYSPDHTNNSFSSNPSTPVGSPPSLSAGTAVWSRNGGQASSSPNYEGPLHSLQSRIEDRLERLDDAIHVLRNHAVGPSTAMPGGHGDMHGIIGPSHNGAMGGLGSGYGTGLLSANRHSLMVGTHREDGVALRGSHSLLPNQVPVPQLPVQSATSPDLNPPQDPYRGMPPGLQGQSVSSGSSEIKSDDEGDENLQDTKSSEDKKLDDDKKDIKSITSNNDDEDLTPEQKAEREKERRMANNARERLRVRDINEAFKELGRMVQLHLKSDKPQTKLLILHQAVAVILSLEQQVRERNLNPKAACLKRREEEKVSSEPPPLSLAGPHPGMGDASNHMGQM
# [7] = molecular target: inca1_human INCA1 (UniProt Q0VD86)
# Chain of inca1_human INCA1 (Q0VD86 whole entry): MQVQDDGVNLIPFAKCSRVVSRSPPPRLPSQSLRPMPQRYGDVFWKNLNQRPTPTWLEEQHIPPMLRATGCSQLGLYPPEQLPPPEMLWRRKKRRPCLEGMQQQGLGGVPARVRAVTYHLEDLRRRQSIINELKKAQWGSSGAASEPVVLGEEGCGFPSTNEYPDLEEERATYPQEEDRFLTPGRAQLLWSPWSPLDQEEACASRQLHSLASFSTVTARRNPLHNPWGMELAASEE
# [8] = molecular target: cep76_human CEP76 (UniProt Q8TAP6)
# [9] = molecular target: kr108_human KRTAP10-8 (UniProt P60410)
# Chain of kr108_human KRTAP10-8 (P60410 whole entry): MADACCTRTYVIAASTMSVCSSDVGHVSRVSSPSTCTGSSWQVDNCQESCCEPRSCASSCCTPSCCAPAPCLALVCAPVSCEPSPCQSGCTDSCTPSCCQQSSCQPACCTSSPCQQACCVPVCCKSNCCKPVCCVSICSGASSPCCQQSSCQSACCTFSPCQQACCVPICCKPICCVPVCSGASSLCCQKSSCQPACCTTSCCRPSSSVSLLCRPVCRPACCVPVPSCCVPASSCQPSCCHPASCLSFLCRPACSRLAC
# [10] = molecular target: T2, dpyl5_human DPYSL5 (UniProt Q9BPU6)
# T2 sequence: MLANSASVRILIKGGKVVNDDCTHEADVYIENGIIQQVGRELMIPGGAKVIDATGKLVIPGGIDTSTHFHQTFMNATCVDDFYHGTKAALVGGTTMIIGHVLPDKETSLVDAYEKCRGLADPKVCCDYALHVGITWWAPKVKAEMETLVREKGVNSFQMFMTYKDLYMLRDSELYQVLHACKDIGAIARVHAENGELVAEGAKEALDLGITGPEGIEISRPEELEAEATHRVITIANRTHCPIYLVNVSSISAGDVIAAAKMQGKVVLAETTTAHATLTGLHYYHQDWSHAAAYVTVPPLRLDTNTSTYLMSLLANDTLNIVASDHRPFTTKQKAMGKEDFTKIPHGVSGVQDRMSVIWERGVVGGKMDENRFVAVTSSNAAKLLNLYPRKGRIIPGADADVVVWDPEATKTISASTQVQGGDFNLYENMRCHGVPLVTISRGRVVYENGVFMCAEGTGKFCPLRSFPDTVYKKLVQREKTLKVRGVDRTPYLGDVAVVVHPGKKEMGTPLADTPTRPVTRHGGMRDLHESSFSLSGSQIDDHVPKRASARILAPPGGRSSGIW
# [11] = molecular target: gors2_human GORASP2 (UniProt Q9H8Y8)
# [12] = molecular target: dpyl3_human DPYSL3 (UniProt Q14195)
# [13] = molecular target: dpyl2_human DPYSL2 (UniProt Q16555)
# [14] = molecular target: hnrll_human HNRNPLL (UniProt Q8WVV9)
# [15] = molecular target: ZNF385C (UniProt Q66K41)
# [16] = molecular target: tyk2_human TYK2 (UniProt P29597)
# [17] = molecular target: ytdc1_human YTHDC1 (UniProt Q96MU7)
# [18] = molecular target: rbm42_human RBM42 (UniProt Q9BTD8)
# [19] = molecular target: U2AF1 (UniProt Q01081)
# Chain of U2AF1 (Q01081 whole entry): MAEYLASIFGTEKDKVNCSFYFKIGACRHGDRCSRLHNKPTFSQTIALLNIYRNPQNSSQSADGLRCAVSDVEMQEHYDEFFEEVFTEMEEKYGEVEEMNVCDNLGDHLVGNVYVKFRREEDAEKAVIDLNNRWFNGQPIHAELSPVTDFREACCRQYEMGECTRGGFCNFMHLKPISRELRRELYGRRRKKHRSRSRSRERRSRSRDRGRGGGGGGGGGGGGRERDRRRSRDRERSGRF
# [20] = molecular target: abi2_human ABI2 (UniProt Q9NYB9)
# [21] = molecular target: rbm7_human RBM7 (UniProt Q9Y580)
# Chain of rbm7_human RBM7 (Q9Y580 whole entry): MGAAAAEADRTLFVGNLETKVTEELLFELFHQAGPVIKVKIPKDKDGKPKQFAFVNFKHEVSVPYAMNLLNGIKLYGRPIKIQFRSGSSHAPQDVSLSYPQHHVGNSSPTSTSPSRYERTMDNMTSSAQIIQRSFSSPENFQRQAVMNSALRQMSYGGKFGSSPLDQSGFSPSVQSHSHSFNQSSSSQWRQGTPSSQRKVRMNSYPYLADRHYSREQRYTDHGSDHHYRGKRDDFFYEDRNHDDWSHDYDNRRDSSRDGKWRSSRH
# [22] = molecular target: grap2_human GRAP2 (UniProt O75791)
# Chain of grap2_human GRAP2 (O75791 whole entry): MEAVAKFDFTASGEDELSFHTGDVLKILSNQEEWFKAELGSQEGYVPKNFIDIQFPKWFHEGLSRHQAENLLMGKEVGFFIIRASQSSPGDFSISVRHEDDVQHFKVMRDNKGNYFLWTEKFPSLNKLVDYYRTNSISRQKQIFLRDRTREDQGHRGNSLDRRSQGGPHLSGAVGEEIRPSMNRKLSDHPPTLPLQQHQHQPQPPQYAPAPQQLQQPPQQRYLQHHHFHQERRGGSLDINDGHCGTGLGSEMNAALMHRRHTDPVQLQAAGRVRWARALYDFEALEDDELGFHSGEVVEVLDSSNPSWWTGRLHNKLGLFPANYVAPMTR
# [23] = molecular target: prr3_human PRR3 (UniProt P79522)
# [24] = molecular target: qki_human QKI (UniProt Q96PU8)
# [25] = molecular target: cirbp_human CIRBP (UniProt Q14011)
# [26] = molecular target: pex39_human PEX39 (UniProt Q5I0X4)
# Chain of pex39_human PEX39 (Q5I0X4 whole entry): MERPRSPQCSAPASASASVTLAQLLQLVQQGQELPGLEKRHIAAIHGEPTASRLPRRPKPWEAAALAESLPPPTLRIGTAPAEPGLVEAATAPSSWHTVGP
# [27] = molecular target: aakb2_human PRKAB2 (UniProt O43741)
# [28] = molecular target: zbt24_human ZBTB24 (UniProt O43167)
# [29] = molecular target: leg9b_human LGALS9B (UniProt Q3B8N2)
# [30] = molecular target: pdli7_human PDLIM7 (UniProt Q9NR12)
# [31] = molecular target: erep1_human ENTREP1 (UniProt Q15884)
# [32] = molecular target: hnrl1_human HNRNPUL1 (UniProt Q9BUJ2)
# [33] = molecular target: fxl18_human FBXL18 (UniProt Q96ME1)
# [34] = molecular target: ikzf3_human IKZF3 (UniProt Q9UKT9)
# [35] = molecular target: neca2_human NECAB2 (UniProt Q7Z6G3)
# [36] = molecular target: inca1_human INCA1 (UniProt Q0VD86); remark: listed apart in the source
# [37] = molecular target: taso2_human TASOR2 (UniProt Q5VWN6)
# [38] = molecular target: itf2_human TCF4 (UniProt P15884); remark: listed apart in the source
# [39] = molecular target: tri23_human TRIM23 (UniProt P36406)
# [40] = molecular target: kr108_human KRTAP10-8 (UniProt P60410); remark: listed apart in the source
# [41] = molecular target: stat3_human STAT3 (UniProt P40763)
# [42] = molecular target: efs_human EFS (UniProt O43281)
# [43] = molecular target: zn446_human ZNF446 (UniProt Q9NWS9)
# Chain of zn446_human ZNF446 (Q9NWS9 whole entry): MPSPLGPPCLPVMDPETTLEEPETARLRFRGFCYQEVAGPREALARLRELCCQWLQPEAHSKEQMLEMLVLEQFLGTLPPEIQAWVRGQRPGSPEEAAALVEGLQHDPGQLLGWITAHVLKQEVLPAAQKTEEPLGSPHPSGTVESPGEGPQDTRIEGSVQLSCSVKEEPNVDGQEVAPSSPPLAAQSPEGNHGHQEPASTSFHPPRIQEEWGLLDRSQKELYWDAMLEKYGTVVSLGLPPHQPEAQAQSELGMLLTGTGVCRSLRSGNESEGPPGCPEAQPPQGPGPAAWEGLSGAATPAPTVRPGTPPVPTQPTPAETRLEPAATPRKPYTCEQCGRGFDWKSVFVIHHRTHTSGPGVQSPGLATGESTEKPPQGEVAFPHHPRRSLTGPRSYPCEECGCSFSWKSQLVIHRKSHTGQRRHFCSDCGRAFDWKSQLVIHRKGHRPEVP
# [44] = molecular target: kr101_human KRTAP10-1 (UniProt P60331)
# [45] = molecular target: kr103_human KRTAP10-3 (UniProt P60369)
# [46] = molecular target: kr105_human KRTAP10-5 (UniProt P60370)
# [47] = molecular target: mdfi_human MDFI (UniProt Q99750)
# Chain of Zinc finger protein 559 (Homo sapiens), Q9BR84 K62I (Q9BR84 whole entry K62I): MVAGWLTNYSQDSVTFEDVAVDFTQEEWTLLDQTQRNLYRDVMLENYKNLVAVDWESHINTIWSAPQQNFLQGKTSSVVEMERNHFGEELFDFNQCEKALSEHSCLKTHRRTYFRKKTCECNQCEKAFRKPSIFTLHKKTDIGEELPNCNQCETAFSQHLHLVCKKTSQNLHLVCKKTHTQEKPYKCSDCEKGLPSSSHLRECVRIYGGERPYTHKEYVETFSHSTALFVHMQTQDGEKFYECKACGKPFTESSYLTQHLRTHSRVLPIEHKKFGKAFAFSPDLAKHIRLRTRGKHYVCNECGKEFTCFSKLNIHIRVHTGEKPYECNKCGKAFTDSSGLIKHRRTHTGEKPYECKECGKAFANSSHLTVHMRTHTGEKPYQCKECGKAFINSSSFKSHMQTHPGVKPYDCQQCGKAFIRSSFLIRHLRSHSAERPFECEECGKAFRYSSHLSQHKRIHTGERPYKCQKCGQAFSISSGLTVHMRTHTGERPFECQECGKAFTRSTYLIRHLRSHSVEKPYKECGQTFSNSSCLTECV
# Chain of Serine/threonine-protein kinase Nek6 (Homo sapiens), Q9HC98 R195C (Q9HC98 whole entry R195C): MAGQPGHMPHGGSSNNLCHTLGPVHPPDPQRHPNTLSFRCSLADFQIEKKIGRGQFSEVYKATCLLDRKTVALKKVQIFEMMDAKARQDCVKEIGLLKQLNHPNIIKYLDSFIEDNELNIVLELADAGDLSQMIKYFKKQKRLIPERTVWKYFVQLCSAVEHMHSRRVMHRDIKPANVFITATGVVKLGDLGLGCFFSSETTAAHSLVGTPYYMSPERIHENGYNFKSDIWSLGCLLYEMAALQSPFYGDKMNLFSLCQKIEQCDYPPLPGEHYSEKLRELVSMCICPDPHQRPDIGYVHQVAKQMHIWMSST
# Chain of Tyrosine-protein kinase Blk (Homo sapiens), P51451 I338T (P51451 whole entry I338T): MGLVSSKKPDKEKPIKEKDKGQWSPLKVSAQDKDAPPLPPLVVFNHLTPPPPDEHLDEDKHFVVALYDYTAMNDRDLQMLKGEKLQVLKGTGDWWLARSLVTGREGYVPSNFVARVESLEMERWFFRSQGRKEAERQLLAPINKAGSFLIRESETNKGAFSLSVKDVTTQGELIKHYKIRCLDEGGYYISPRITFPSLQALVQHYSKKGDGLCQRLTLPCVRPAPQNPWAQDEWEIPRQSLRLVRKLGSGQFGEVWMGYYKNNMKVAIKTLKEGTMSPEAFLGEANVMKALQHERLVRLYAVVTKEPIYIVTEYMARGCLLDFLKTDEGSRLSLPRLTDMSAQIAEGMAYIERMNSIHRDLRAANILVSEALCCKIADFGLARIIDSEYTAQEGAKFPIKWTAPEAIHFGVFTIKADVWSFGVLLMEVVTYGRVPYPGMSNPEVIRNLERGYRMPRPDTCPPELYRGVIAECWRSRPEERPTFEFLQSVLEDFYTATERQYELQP
# Chain of Apolipoprotein A-II (Homo sapiens), P02652 Q71R (P02652 whole entry Q71R): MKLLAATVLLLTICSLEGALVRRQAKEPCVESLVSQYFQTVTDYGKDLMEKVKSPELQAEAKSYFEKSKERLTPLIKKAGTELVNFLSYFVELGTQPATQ
substance,measurement,setting,value
"AP-2 complex subunit sigma (Homo sapiens), P53680 G64D",effect of a mutation on the interaction,[1],with no effect
"Actin, cytoplasmic 1 (Homo sapiens) (from UniProt P60709) R372C",effect of a mutation on the interaction,[2],with no effect
same,effect of a mutation on the interaction,[3],with no effect
"Apolipoprotein A-II (Homo sapiens), P02652 Q71R",effect of a mutation on the interaction,[4],with no effect
same,effect of a mutation on the interaction,[5],with no effect
"Calcium-binding protein 5 (Homo sapiens), Q9NP86 T59M",effect of a mutation on the interaction,[6],with no effect
same,effect of a mutation on the interaction,[7],with no effect
same,effect of a mutation on the interaction,[8],with no effect
"Cyclin-J-like protein (Homo sapiens), Q8IV13 W188R",effect of a mutation on the interaction,[9],with no effect
Dihydropyrimidinase-related protein 2 (Homo sapiens) (from UniProt Q16555) R496C,effect of a mutation on the interaction,[10],with no effect
same,effect of a mutation on the interaction,[11],disrupting interaction strength
same,effect of a mutation on the interaction,[12],with no effect
"Dihydropyrimidinase-related protein 3 (Homo sapiens), Q14195 V25I",effect of a mutation on the interaction,[13],with no effect
"Heterogeneous nuclear ribonucleoprotein K (Homo sapiens), P61978 R377H",effect of a mutation on the interaction,[14],with no effect
same,effect of a mutation on the interaction,[15],with no effect
same,effect of a mutation on the interaction,[16],with no effect
same,effect of a mutation on the interaction,[17],with no effect
same,effect of a mutation on the interaction,[18],with no effect
same,effect of a mutation on the interaction,[19],with no effect
same,effect of a mutation on the interaction,[20],with no effect
same,effect of a mutation on the interaction,[21],with no effect
same,effect of a mutation on the interaction,[22],with no effect
same,effect of a mutation on the interaction,[23],with no effect
same,effect of a mutation on the interaction,[24],with no effect
same,effect of a mutation on the interaction,[25],with no effect
same,effect of a mutation on the interaction,[26],with no effect
"Krueppel-like factor 15 (Homo sapiens), Q9UIH9 G206R",effect of a mutation on the interaction,[27],with no effect
same,effect of a mutation on the interaction,[28],with no effect
"NEDD4-like E3 ubiquitin-protein ligase WWP2 (Homo sapiens), O00308 R178W",effect of a mutation on the interaction,[29],with no effect
same,effect of a mutation on the interaction,[30],with no effect
same,effect of a mutation on the interaction,[31],with no effect
same,effect of a mutation on the interaction,[32],with no effect
same,effect of a mutation on the interaction,[33],with no effect
"Serine/threonine-protein kinase Nek6 (Homo sapiens), Q9HC98 R195C",effect of a mutation on the interaction,[34],disrupting interaction strength
same,effect of a mutation on the interaction,[35],disrupting interaction strength
same,effect of a mutation on the interaction,[36],with no effect
same,effect of a mutation on the interaction,[37],disrupting interaction strength
same,effect of a mutation on the interaction,[38],with no effect
same,effect of a mutation on the interaction,[39],disrupting interaction strength
"Solute carrier family 23 member 1 (Homo sapiens), Q9UHI7 L461M",effect of a mutation on the interaction,[40],with no effect
"Tyrosine-protein kinase Blk (Homo sapiens), P51451 I338T",effect of a mutation on the interaction,[41],disrupting interaction strength
same,effect of a mutation on the interaction,[42],with no effect
"Zinc finger and SCAN domain-containing protein 30 (Homo sapiens), Q86W11 G186S",effect of a mutation on the interaction,[43],with no effect
"Zinc finger protein 559 (Homo sapiens), Q9BR84 K62I",effect of a mutation on the interaction,[44],with no effect
same,effect of a mutation on the interaction,[45],with no effect
same,effect of a mutation on the interaction,[46],with no effect
same,effect of a mutation on the interaction,[47],with no effect
